Data reported in patent US20240390512A1, “METHODS OF TREATING CHEMOTHERAPY-RESISTANT CANCER WITH AN ANTIBODY-DRUG CONJUGATE” (DAIICHI SANKYO COMPANY, LIMITED, priority 2021, published 2024).

T1: human CDH6 (Homo sapiens, UniProt P55285)
T1 construct: expressed in transfected cells; host or cells: 293α cells (HEK293 stably expressing integrin αv and β3)
T1 sequence (P55285 19-790): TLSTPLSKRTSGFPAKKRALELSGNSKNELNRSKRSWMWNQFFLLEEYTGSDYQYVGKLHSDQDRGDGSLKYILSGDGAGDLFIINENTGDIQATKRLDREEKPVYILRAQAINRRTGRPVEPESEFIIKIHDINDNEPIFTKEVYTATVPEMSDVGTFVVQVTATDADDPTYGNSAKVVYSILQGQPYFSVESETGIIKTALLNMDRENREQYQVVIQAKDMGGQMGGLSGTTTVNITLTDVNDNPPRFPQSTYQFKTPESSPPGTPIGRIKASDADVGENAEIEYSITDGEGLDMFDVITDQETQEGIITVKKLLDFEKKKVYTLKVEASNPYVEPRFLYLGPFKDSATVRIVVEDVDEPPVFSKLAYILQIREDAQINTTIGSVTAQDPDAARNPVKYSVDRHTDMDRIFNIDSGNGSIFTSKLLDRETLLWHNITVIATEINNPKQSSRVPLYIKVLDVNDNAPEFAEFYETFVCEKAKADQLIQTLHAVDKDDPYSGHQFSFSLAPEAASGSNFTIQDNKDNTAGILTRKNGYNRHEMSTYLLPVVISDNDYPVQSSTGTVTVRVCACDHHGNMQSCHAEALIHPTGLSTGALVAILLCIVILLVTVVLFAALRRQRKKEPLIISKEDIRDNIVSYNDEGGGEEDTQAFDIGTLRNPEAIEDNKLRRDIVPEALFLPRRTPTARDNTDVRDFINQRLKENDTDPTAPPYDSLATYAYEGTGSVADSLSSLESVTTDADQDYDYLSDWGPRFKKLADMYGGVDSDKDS


Molecular target: T1, human CDH6
Experiment: Hybridoma screening by Cell-ELISA
Type: binding
Details: hybridoma culture supernatant; 293α cells transfected with pcDNA3.1-hCDH6
Experimental: 293α cells (a stable expression cell line derived from HEK293 cells expressing integrin αv and integrin β3) were prepared at 5×10^5 cells/mL in DMEM medium supplemented with 10% FBS. In accordance with transduction procedures for using Lipofectamine 2000 (Thermo Fisher Scientific Inc.), DNA of pcDNA3.1-hCDH6 or pcDNA3.1-cynoCDH6, or pcDNA3.1 as a negative control was introduced into the 293α cells, and the cells were dispensed in an amount of 100 μL/well onto a 96-well plate (Corning Inc.). Thereafter, the cells were cultured under conditions of 37° C. and 5% CO2 in DMEM medium supplemented with 10% FBS for 24 to 27 hours. The obtained transfected cells were used for Cell-ELISA in an adhesive state.
The culture supernatant of the 293α cells transfected with the expression vector prepared in Reference Example 1)-4-1 was removed, and the culture supernatant from each hybridoma was then added to the 293α cells transfected with pcDNA3.1-hCDH6 or pcDNA3.1-cynoCDH6, or pcDNA3.1. The cells were left standing at 4° C. for 1 hour. The cells in the wells were washed once with PBS (+) supplemented with 5% FBS, and thereafter, Anti-Rat IgG-Peroxidase antibody produced in rabbit (Sigma-Aldrich Co. LLC) that had been 500-fold diluted with PBS (+) supplemented with 5% FBS was added to the wells. The cells were left standing at 4° C. for 1 hour. The cells in the wells were washed three times with PBS (+) supplemented with 5% FBS, and thereafter, OPD coloring solution (which had been prepared by dissolving o-phenylenediamine dihydrochloride (Wako Pure Chemical Industries, Ltd.) and H2O2 in an OPD solution (0.05 M trisodium citrate, 0.1 M disodium hydrogen phosphate 12-water; pH 4.5), so that the substances became 0.4 mg/ml and 0.6% (v/v), respectively, was added in an amount of 100 μL/well to the wells. A coloring reaction was carried out with occasional stirring. Thereafter, 1 M HCl was added to the plate (100 μL/well) to terminate the coloring reaction, followed by measurement of the absorbance at 490 nm using a plate reader (ENVISION: PerkinElmer, Inc.).
The heavy chain subclass and the light chain type of the antibody were determined using a RAT MONOCLONAL ANTIBODY ISOTYPING TEST KIT (DS Pharma Biomedical Co., Ltd.).

binding to human CDH6 | Molecule
bind specifically and strongly | rG055: rat anti-human CDH6 monoclonal antibody produced by hybridoma rG055; variable regions SEQ ID NO: 20 and 25 (antibody, listed as Rattus norvegicus, V domains shown) VL: DVQMTHSPSYLAASPGESVSISCKTSKNISNYLVWYQQKPGEAYKLLIYSGSTLQSGTPSRFSGSGSGTDFTLTIRSLEPEDFGLYFCQQYYEKPFTFGSGTKLEIKRA VH: EVQLQESGPGLVRPSQSLSLSCSVTDYSITSNYWGWIRRFPGNKMEWMGYITYSGYTSYNPSLQSRISITRDTSKNQFFLQLNSVTAEDTATYYCARSINHGGYSYVVDAWGPGASVTVSS
bind specifically and strongly | rG061: rat anti-human CDH6 monoclonal antibody produced by hybridoma rG061; variable regions SEQ ID NO: 40 and 45 (antibody, listed as Rattus norvegicus, V domains shown) VL: DVQMTQSPSYLAASPGESVSISCKATKSISNYLAWYQQKPGEAYKVLIYSGSTLQSGTPSRFSGSGSGTDFTLTIRSLEPEDFGLYSCQQYYEKPLTFGSGTKLEIKRA VH: EVQLQESGPGLVKPSQSLSLTCSVTGYSITTYYWGWIRKFPGNKMEWMGYISYSGRTSYNPSLKSRMSITRDASKNQFFLQLNSVTTDDTATYYCARSPINHGGYWYFDFWGPGTMVTVSS
bind specifically and strongly | rG056: rat anti-human CDH6 monoclonal antibody produced by hybridoma rG056; variable regions SEQ ID NO: 30 and 35 (antibody, listed as Rattus norvegicus, V domains shown) VL: DVQMTQSPSSLAASPGESVSISCRATKSIGIYLAWYQQKPGKTFKLLIYSGSTLQSGTPSRFSGSGSGTDFTLTIRSLEPEDFGLYFCQQFYENPFTFGSGTKLEIRRA VH: EVQLQESGPGLVKPSQSLSLTCSVTDYSITTYFWGWIRKFPGNKMEWMGYMSYRGGTSYNPSLKSRISITRDTSKNQFFLQLNSVTTEDTATYYCARCPNYGGHSLVFDYWGQGVMVTVSS
bind specifically and strongly | rG019: rat anti-human CDH6 monoclonal antibody produced by hybridoma rG019; variable regions SEQ ID NO: 10 and 15 (antibody, listed as Rattus norvegicus, V domains shown) VL: DIQMTQSPSLLSASVGDRVTLNCKASQNIYKNLAWYQQKLGEGPKLLIYDANTLQTGIPSRFSGSGSGSDFTLTISSLQPEDVATYFCQQYYSGWAFGGVTNLELKRA VH: QVQLQQSGAELVKPGSSVKISCKASGYTFTRNFMHWIKQQPGNGLEWIGWIYCGDGETEYNQKFNGKATLTADRSSSTAYMELSRLTSEDSAVYFCARGVYGGFAGGYFDFWGQGVMVTVSS
